Molecular target: human β2 adrenergic receptor, wild type (human) (UniProt P07550)
Assay: cell-based or functional assay

MbNb80^cHopQ (designed binder)
apparent potency shift for epinephrine: IC50 for β2AR-wt alone divided by IC50^high in the presence of MbNb80^cHopQ ([3H]-DHA competition) (fold (IC50 ratio)): 2000
apparent potency shift for isoprotenerol: IC50 for β2AR-wt divided by IC50^high in the presence of MbNb80^cHopQ ([3H]-DHA competition) (fold (IC50 ratio)): 2000

Source: US20210206880A1
